US20200148781A1 (HELMHOLTZ ZENTRUM M NCHEN DEUTSCHES FORSCHUNGSZENTRUM F R …, published 2020)

Target: T1, CD73 protein from lysates of U138 glioblastoma cells (human, UniProt P21589 27-549)
T1 construct: Same endogenous protein as m2, but solubilised in cell lysate for immunoprecipitation
T1 sequence (looked up): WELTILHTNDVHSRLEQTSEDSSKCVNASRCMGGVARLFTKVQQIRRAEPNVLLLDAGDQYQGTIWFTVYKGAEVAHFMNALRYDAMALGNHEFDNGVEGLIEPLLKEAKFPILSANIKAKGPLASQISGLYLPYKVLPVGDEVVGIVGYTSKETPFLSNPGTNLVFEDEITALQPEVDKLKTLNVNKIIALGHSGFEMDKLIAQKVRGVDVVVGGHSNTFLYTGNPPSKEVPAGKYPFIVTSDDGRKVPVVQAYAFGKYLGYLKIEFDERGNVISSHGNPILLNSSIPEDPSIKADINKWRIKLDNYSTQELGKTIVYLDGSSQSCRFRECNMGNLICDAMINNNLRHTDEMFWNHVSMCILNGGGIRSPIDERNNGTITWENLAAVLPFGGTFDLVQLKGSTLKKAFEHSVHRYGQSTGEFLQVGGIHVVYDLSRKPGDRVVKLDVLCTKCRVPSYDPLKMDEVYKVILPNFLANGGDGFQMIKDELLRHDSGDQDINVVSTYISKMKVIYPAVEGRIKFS
Test: immunoprecipitation from cell lysate, immunoblot with a commercial CD73 mAb
Experimental: In this example, mAb 22E6 binding affinity was characterized (FIG. 3). It was shown that mAb 22E6 recognizes CD73 protein on cancer cells. Using a special flow cytometry technique, a fluorescence-activated cell sorting (FACS) with 22E6 and an anti-rat-IgG-specific, fluorophore-labeled secondary mAb, it was shown that the protein recognized by the 22E6 mAb of the invention is present on the surface of human cancer cells of a total of approx. 30 tested cell lines. U138 MG and GBM20 are glioblastoma cell lines, MDA-MB231 and T47D are human breast cancer cell lines. In order to compare the specificity of mAb 22E6 with the specificity of a commercial CD73 mAb an immunoblot with the same cell lines (U138 MG, GBM20, MDA-MB231 and T47D) was performed using the commercial CD73 mAb as shown in FIG. 3B.

B1: mAb 22E6 (antibody, V domains shown)
VH: EVQLVESGGGLVQPGRSMKLSCAASGFTFSFYYMAWVRQAPTKGLEWVASISTGGGNTYYRDSVKGRFTISRDDAKSTLYLQMDSLRSEETATYYCARHGGDYYGYRGGYFDYWDQGVMVTVSS
VL: DIQMTQTPSSMPASLGERVTISCRASQGINNYLNWYQQKPDGTIKPLIYYTSNLQSGVPSRFSGSGSGTDYSLTISSLEPEDFAMYYCQQYDNSPYTFGAGTKLELK
notes: Rat monoclonal antibody from a hybridoma (rats immunized with EVs of the glioblastoma line GBM20); It was detected with an anti-rat-IgG secondary mAb; also called 22E6 mAb; monoclonal antibody termed "22E6"
binding result: binds
